Measurements as given in paper PMC8754118, “The PqsE-RhlR Interaction Regulates RhlR DNA Binding to Control Virulence Factor Production in Pseudomonas aeruginosa” (Microbiology Spectrum, 2022).

B1: RhlR bound to meta-bromo-thiolactone (RhlR:mBTL) (receptor)
chain: MRNDGGFLLWWDGLRSEMQPIHDSQGVFAVLEKEVRRLGFDYYAYGVRHTIPFTRPKTEVHGTYPKAWLERYQMQNYGAVDPAILNGLRSSEMVVWSDSLFDQSRMLWNEARDWGLCVGATLPIRAPNNLLSVLSVARDQQNISSFEREEIRLRLRCMIELLTQKLTDLEHPMLMSNPVCLSHREREILQWTADGKSSGEIAIILSISESTVNFHHKNIQKKFDAPNKTLAAAYAAALGLI

Columns and labels:
[1] = test system: RhlR:mBTL;PqsE (Pseudomonas aeruginosa;Pseudomonas aeruginosa); experiment: EMSA; details: scale: fold higher affinity than RhlR:mBTL alone
6x-His-PqsE (wild type) = 6x-His-PqsE (wild type) (P. aeruginosa, UniProt P20581 1-301); experiment: cell-based or functional assay
6x-His-PqsE(E182W) = 6x-His-PqsE(E182W) (P. aeruginosa, UniProt P20581 1-301, E182W); experiment: cell-based or functional assay
6x-His-PqsE(E182W/S285W) = 6x-His-PqsE(E182W/S285W) (P. aeruginosa, UniProt P20581 1-301, E182W | S285W); experiment: cell-based or functional assay

Molecule	binding signal [1]	bioluminescence from prhlA-luxCDABE in E. coli carrying rhlR and pqsE, 500 nM C4HSL, against the strain lacking PqsE (6x-His-PqsE (wild type)) [fold]	bioluminescence from prhlA-luxCDABE in E. coli carrying rhlR and pqsE(E182W), 500 nM C4HSL, against the no-PqsE control strain (6x-His-PqsE(E182W)) [fold]	bioluminescence from prhlA-luxCDABE in E. coli carrying rhlR and pqsE(E182W/S285W), 500 nM C4HSL, against the no-PqsE control strain (6x-His-PqsE(E182W/S285W)) [fold]
rhlA promoter EMSA probe	5			
B1		42	~11	~11
